One molecule from PMC3713453 (Science signaling, 2013) can be followed below.

Some targets named below: Gal8_(C-CRD) V244A (human, UniProt O00214-2 228-359, V244A); Gal8_(C-CRD) K246A (human, UniProt O00214-2 228-359, K246A); Gal8_(C-CRD) H328A (human, UniProt O00214-2 228-359, H328A); Gal8_(C-CRD) I312L (human, UniProt O00214-2 228-359, I312L); Gal8_(C-CRD) I312V (human, UniProt O00214-2 228-359, I312V).
Holding throughout (assay): ITC
(ITC needs no label: the signal is the heat of the interaction.)

Gal8_(C-CRD) K246A, sequence (O00214 186-317 K204A): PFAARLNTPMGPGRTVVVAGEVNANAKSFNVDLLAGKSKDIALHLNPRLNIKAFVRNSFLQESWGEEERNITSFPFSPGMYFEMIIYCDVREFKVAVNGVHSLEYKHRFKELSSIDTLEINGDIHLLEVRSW
Gal8_(C-CRD) I312V, sequence (O00214 186-317 I270V): as the sequence (O00214 186-317 K204A) above, with A19K, I85V counted along it
Gal8_(C-CRD) V244A, sequence (O00214 186-317 V202A): as the sequence (O00214 186-317 K204A) above, with V17A, A19K counted along it
Gal8_(C-CRD) I312L, sequence (O00214 186-317 I270L): as the sequence (O00214 186-317 K204A) above, with A19K, I85L counted along it
Gal8_(C-CRD) H328A, sequence (O00214 186-317 H286A): as the sequence (O00214 186-317 K204A) above, with A19K, H101A counted along it

Take ARQNPGLAYGNPYS [NDP52_(368-381) peptide]: the binding result with Gal8_(C-CRD) V244A, with Gal8_(C-CRD) K246A, with Gal8_(C-CRD) I312L and with Gal8_(C-CRD) I312V was “binds” in each case. Besides, in the test with Gal8_(C-CRD) H328A, the “fold reduction of affinity against wild-type Gal8_(C-CRD)” value was found to be 8 fold.
